{
  "source": "patent US20200157180A1",
  "about": "(JIANGSU HENGRUI MEDICINE, published 2020)",
  "binders": {"B1": {"name": "PD-L1 antibody (antibody, human IgG4 S228P, kappa, F234A L235A, V domains shown)", "VH": "QVQLVQSGAEVKKPGASVKVSCKASGYTFTSYWMHWVRQAPGQGLEWMGRIGPNSGFTSYNEKFKNRVTMTRDTSTSTVYMELSSLRSEDTAVYYCARGGSSYDYFDYWGQGTTVTVSS", "VL": "DIVLTQSPASLAVSPGQRATITCRASESVSIHGTHLMHWYQQKPGQPPKLLIYAASNLESGVPARFSGSGSGTDFTLTINPVEAEDTANYYCQQSFEDPLTFGQGTKLEIKR", "notes": "Humanized IgG4 with S228P, F234A, L235A; last heavy chain residue K mutated to A; also called anti-PD-L1 antibody; PD-L1 antibody heavy chain: IgG4(AA)(S228P)"}},
  "key": {"[1]": {"biological_target": "human PD-L1 on CHO/PD-L1 cells (human, UniProt Q9NZQ7 19-290)", "sequence (Q9NZQ7 19-290)": "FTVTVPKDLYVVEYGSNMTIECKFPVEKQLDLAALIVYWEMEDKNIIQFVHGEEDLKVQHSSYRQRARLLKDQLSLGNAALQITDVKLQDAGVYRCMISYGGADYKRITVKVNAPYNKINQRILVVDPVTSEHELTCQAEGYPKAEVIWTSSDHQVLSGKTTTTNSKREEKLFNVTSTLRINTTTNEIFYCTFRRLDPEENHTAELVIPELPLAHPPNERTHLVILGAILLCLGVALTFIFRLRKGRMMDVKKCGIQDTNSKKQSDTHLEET", "assay": "cell-based or functional assay"}, "human TGF-β1 [2]": {"biological_target": "T1, human TGF-β1 (human, UniProt P01137 279-390)", "T1 construct": "Bought protein", "T1 sequence (P01137 279-390 limits assumed)": "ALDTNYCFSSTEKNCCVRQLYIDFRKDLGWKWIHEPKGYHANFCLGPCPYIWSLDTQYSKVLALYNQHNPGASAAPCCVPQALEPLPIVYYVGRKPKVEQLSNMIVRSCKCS", "assay": "ELISA, coated human TGF-β1 1 µg/ml, anti-human Fc-HRP, OD450", "description": "a. 96-well plates were coated with 100 μl/well of human TGF-β1 (8915LC, CST) at a concentration of 1 μg/ml at 4° C. overnight.\nd. The wells were washed 3 times with 250 μl 1×PBST, e. 100 μl of Anti-human Fc antibody-HRP (1:4000) was added to each well and incubated for 40 minutes at 37° C."}, "human TGF-β1 [3]": {"biological_target": "T1, human TGF-β1", "assay": "cell-based or functional assay"}},
  "data": [
    {"binder": "B1", "values": [
      {"measurement": "EC50 (read off the curve)", "setting": "[1]", "value": "~0.3", "unit": "nM"},
      {"measurement": "binding result", "setting": "human TGF-β1 [2]", "value": "no binding (tested: Log(pM) 6 (10^6 pM))"},
      {"measurement": "IC50, TGFβ-induced pSMAD3 reporter (luciferase) activity in HepG2 cells", "setting": "human TGF-β1 [3]", "value": "> 500", "unit": "nM"}
    ]}
  ]
}
